Data: the nanobody polyreactivity screen of Harvey et al. (2022)

Experiment: yeast display, Sf9 membrane polyspecificity reagent, FACS + sequencing; frameworks hold sequencing errors
Summary of the method: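 A synthetic nanobody library was expressed on Saccharomyces cerevisiae BJ5465 by galactose induction for 36–48 hours. The library was stained for 1 hour at 4 °C with 10% biotinylated, detergent-solubilized Sf9 membrane reagent and enriched with streptavidin microbeads before FACS. Low and high (top ~1%) gates were set on anti-HA fluorescence for expression and streptavidin fluorescence for reagent binding, and each polyreactivity label reflects the gate of origin.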

| Sequence | polyreactivity (PSR sort gate) |
| --- | --- |
| QVQIVESGGGLVQAGGSLRLSCAASGRTFYLNAMGWYRQAPGKERELVAANRFSGGSTYYADSVKGRFTISRDNAQNTVYLQMNSLKPEDTAVYYCIAGADHALYPTVSEYGYWGQGTQVTVSS | low polyreactivity |
| QVQIVESGGGLVQAGGSLRLSCAASGSIFARMAMGWYRQAPGKEWELVAAITTGGITNYADSLKGLFTISRDNAKNTVYLQMNSLKPDDTAVYYCAATSWRYQQSTRYKGRRYYSWGQGTQVTVSS | high polyreactivity |
| QVQIVESGGGLVQAGGSLRLSCAASGSIFQGNPMGWYRQAPWKEREFVAAISWSGDSTYYADSVKGRFTISRDNAKYSVYLQMNSLKTEDTAVYYCGADPWDIYRRLSPGDHDYWGQCTQVTVSS | low polyreactivity |
| QVQIVESGGGLVQAGGSLRLSCAASGSIFQGYAMGWYRQAPGKERELVAAITNRGGNTYYADSVKGRFTISRDNAKYSVYLQMNSLKPEDTAVYYCAADPRYSHSFSGYYDYWGQGTQVTVSS | high polyreactivity |
| QVQIVESGGGLVQAGGSLRLSCAASGSIFSRNVMGWYRQAPGKERELVAAISRSGGRTYYADSVKGRFTISRDYAKNTVYLQMNSLKPEDTAVYYCNRDIGGTSVLDDYWGQGTQVTVSS | low polyreactivity |
| QVQIVESGGGLVQAGGSLRLSCAASGSIFVWYAMGWYRQAPGKERELVARITSGGRTNYADSVKGRFTISRDNAKNTVYLQMNSLKPEDTAVYYCAAGRVSWSPYYYWGQGTQVTVSS | high polyreactivity |
| QVQIVESGGGLVQAGGSLRLSCAASGSIFYRYAMGWYRQAPGKERQLVAAISSGGTTSYADSVKGRFTISRDNAKNTVYLQMNSLKPEDTAVYYCAAFAYGYRYKTYDYWGQGTQVTVSS | high polyreactivity |
| QVQIVESGGGLVQAGGSLRLSCAASGSTFDGNAMGWYRQAPGKERELVATINSDDSKNYSDSVKGSFTISRDNAKNTVYLQMNSLKPEDTAVYYCAAVVSVPELYDYWGQGTQVTVSS | low polyreactivity |
| QVQIVESGGGLVQAGGSLRLSCAASGSTFFANTMGWYRQAPGKERELVAAISWSSVRTYYADSVKGRFTISRDHAKNTVYLQMNSLKPEDTAVYYCAAYSRFRYDYWGQGTQVTVSS | high polyreactivity |
| QVQIVESGGGLVQAGGSLRLSCAASGSTFGGNAMGWYRQAPGKERELVASITSSGGSTYYADSVKGRFTISRDNAKNTVYLQMNSLKPEDTAVYYCAAGKWYRSPWKYDYWGQGTQVTVSS | low polyreactivity |
| QVQIVESGGGLVQAGGSLRLSCAASGSTFKWYAMGWYRQSTGKERQLVAAITSTDSTTYADSLKGRFTISRDNAKNTVYLHMNSLKPEDTAVYYCNRLYYHWYGGLDYWGLGTQVTVSS | high polyreactivity |
| QVQIVESGGGLVQAGGSLRLSCAASGSTFLSNAMGWYRQAPGKERELVATISFSGATYADSVKGRFTIARDNAKNTVYLQMNSLKPEDTAVYYCNRATLNYSGKGDTAYDYWGQGTQVTVSS | low polyreactivity |
| QVQIVESGGGLVQAGGSLRLSCAASGSTFSVYAMGWYRQAPGKDRELVVAIRSSGGSTYYAHSVKGRFTISRDNAKNTVYLQMNSLKPEDTAVYYCATRIIVGSYRYDYWGQATQVTVSS | low polyreactivity |
| QVQIVESGGGLVQAGGSLRLSCAASGSTFWYNAMGWYRQAPGKERELVAAITWTGDGTYYADSVKGRFTISRDNAKNTVYLQMNSLKPEDTAVYYCAAAYFQWSTSIVGLDAGYDYWGQGTQVNVSS | low polyreactivity |
| QVQIVESGGGLVQAGGSLRLSCAASGSTFYRNAMGWYRQAPGKERELVAAIRWTGGNTYYADSVKGRFTISRDNAKNTVYLQMNSLKPEDTAVYYCAARSPLYGHGYWGQGTQVTVSS | high polyreactivity |
| QVQIVESGGGLVQAGGSLRLSCAASGSTVQYYAMGWYRQAPGKERELVAAISYTGGSTYYADSVKARFTISRDNAKNSVYLEMSSLKPEDTAVYYCAAGRRGSDTGTEYYWGQGTQVTVSS | high polyreactivity |
| QVQIVESGGGLVQAGGSLRLSCAASGSTYDHYTLGWYRQAPGKERELVAAINRIADSTYYADSVKGRFTNSRDNQKNTVYVQMTSLNPEDTAVYYCAARQFVYSSRIILYDYWGHGTQVTVSS | high polyreactivity |
| QVQIVESGGGLVQAGGSLRLSCAASGTFARYAMGWYRQAPRKERELVAAITRRGGNTYYADSVKGRFSISRDNAKNTVYLPMNSQKPEDTAVYYCAILGEDTNGYWGQGTQVTVSS | high polyreactivity |
| QVQIVESGGGLVQAGGSLRLSCAASGYIFIVYTMGWYRQAPGKERELVAAISSGGITDYADSVKGRFTLSRDNAKNTLYIQMTRLKPEDTAVYYWGQGTQVTVSS | low polyreactivity |
| QVQIVESGGGLVQAGGSLRLSCAASVRTFGRYVMGWYRQAPGKERELVAAISSGGRTYYADSVKGRFTISRDNAKNTVYLQMNSLKPEDNAVYYCAVYVAYLYSYYYWGQGTQVTVSS | low polyreactivity |
| QVQIVESGGGLVQAGGSLRLSCAPSGRIYGPYAIGLYRQEPGKERELDAAIRSGGSTNYADSVKGRFTISRDNAKNTVYLQMNSLNPEDTAVYYCNAVRHTYGYYSWGQGTQVTVSS | high polyreactivity |

| Sequence | polyreactivity (PSR sort gate) |
| --- | --- |
| QVQIVESGGGLVQAGGSLRLSCASSGSTMPAYTMGWYRQAPGKERELVADISRRGGSTYYADSVKGRFTISRDNAKNNVYLHMNSLKPEDTPVYYCATTAKKSYDYWGQGTHVTVSS | high polyreactivity |
| QVQIVESGGGLVQAGGSLRLSCPASGLTFAWYAMGWYRQAPWTERELVAAINRSGGSTSYADSVKGRFTISRDNAMNTVYLQMNSLKPEDTAVYYCAAQLGYTTLGLIYWGQGTQVTVSS | low polyreactivity |
| QVQIVESGGGLVQAGGSLSLSCASSGSTIGDYAMGWYRQAPGKERELVAAINSGDSKNYADSVKGRFTISRDNAKNTVYLQMNSLKPEDTAVYYCAAEPLSISYVYYKYKYEYWGQGTQVTVSS | low polyreactivity |
| QVQIVESGGGLVQAVGSLRLSCAAYGSTFCANAMGCYRQAPGKERELVAAIRGTGGSTYADSVKGRFTISRDNAKNTVYLQMNSLKPEDTAVYYCNAKGRGWTAQYDYCGQGTQVTVSS | low polyreactivity |
| QVQIVESGGRLVQAGCSLRLSCAASGRIFTRYAMGWYRQAPGKERELVASIRHSGGSTYYADSVKGRFTISRDNAKNTVYLQMNSLKPEDTAVYYCAARGKKGTRYNYNYWGHGTQVTVSS | high polyreactivity |
| QVQIVESGGVLVQAGGSLRLRCAASGSTFNRYAMGWYRQAPGKERELVASITTSDSTNYADSVKGRFTISRDNAQNTVYLQMNRLKPEDTALYYCNAEVRGVWYTYDYWGQGTQVTVSS | low polyreactivity |
| QVQIVESGGVLVQPGGILRLSCAASGFTFDAYDMGWYRQAPGKERELVAANSWRGIDTTYADSVKWRFTISRDNAKNPVFLQMNSLKPEDTAVYYCAEFVSDATVGTSKGLDYWGQGTQVTVSS | low polyreactivity |
| QVQIVESGRGLVQAGGSLSLSCAASGNIFYRYTMGWYRQAPGKERELVAAISRTGGSTYYADSVKGRFTISRDNAKNTVYLQMNSLKPEDTAVYYCAVRYMDPPYFYSKRFGYWGQGTQVTVSS | high polyreactivity |
| QVQIVESRGGLVQAGGSLRLSCAASGSIIRYYVMGWYRQAPRKERELVASISYSVGRTYYADSVKGRFTISRDNAKNTVYLQMNSLKPEDSAVYYCASDRYWPYYSAYYTSYRMDYWGQGTQVTVSS | high polyreactivity |
| QVQIVESVGGLDQAGGSLRLSCAASGSKFVYYAIGSYRQAPAKERELVAAIDVSDGGTYYADSVKVRFSISRDNAKNTVYLQMNSLKPEVTAVYYCAADQGIDVPFICYDYWGQGTQVTVSS | high polyreactivity |
| QVQIVESVGGLFQAGGTLRLICAASGLTFRSYTMGWYRQAPGKERELVAAISSGGSTYYADSVKGRFTISRDNAKNTVYLQMNSLKPEDTAVYYCAARAPWPKWGYYYWGQGTQVTVSS | high polyreactivity |
| QVQIVESWGGLVQAGGSLRLSCDASGSIFTNANGWYRQAPGKERELVAAISSSGGSTYYADSVKGRFTISRDNAKNTVYLQMNSLKPEDTAVYYCAADHYGGRDYWGQGTQVTVSS | low polyreactivity |
| QVQLADSGGGLVQAGGSLRLICAASGTFGSNAMGWYIQAPGKERELVAAINSGGTTKYADSVKGRFTISRDNAKNTVYLQMNRLKPEDSALYYCNAREGVFSYTVAHDYWGQGTQVTVSS | low polyreactivity |
| QVQLAESGGCLVQAGGTLRLSCAASGSTSAKNVMGWYRQPPGKERELVAAISRSGGRTYYADSVKGRFTISRDNAKNTVFLQMNSLKPEVSAVYYCANDYGGYYSRYDYWGQGTQVTVSS | high polyreactivity |
| QVQLAESGGGFVQAGGTLRLTCAASGSIFTSNAMGWFRQAPGKERELVAPSSWRGTSTYYADSVKGRYTISRDNAKTTVYLQMNSLKPVDTAVYYCAKYRRFRPYGSNGIYDYWGQGTQVTVSS | high polyreactivity |
| QVQLAESGGGLVQAGGSLRLICAASGFTFSAYAMGWYRQAPGKERELVAAINTSGGSTYYADSVKGRFTISRDNAKNTVYLQMKSLKPEDTAVYYCASKYASLDRRRRKYDYWGQGTQVTVSS | high polyreactivity |
| QVQLAESGGGLVQAGGSLRLSCAASGFILHHYTMGWYRQAPGKERELVAAISRSGGSTYYADSVKGRFTISRDNAKNTVYLQMNSLKPEDTAVYYCAKRVSTYGFSGYDYWGQGSQVTVSS | high polyreactivity |
| QVQLAESGGGLVQAGGSLRLSCAASGRIFYGYTMGWYRQAPGKERELVAAITWSGGSTYYADSVKGRFTISRDNAKNTVYLQMNSLKPKDTAVYYCAATLGNAADYDYGYWGQGTQVTVSS | high polyreactivity |
| QVQLDESGGGLVQAGGSLRLSCAASGHIFFYYTMGWSRQAPRKEREFVAGITIGGSTNYADSVKGRFTISRDNAKYTVYLQKNSLKPEDTAVYYCNVVTYVYIYSYWEYYYWGQGTQVTVSS | low polyreactivity |
| QVQLDESGGGLVQAGGSLRLSCAASGSTFNIYAMGWYRRAPWQERELVAAITRGGSTNYADSVKGRFTISRDNAKNTVYLQMNSLKPEDTAVYYCAARTAYFTSYGRYYYWGQGTQVTVSS | high polyreactivity |
